According to PMC10907715, “Soluble Frizzled-related proteins promote exosome-mediated Wnt re-secretion” (Communications Biology, 2024):

Columns and labels:
FLAG-mClover-mouse Wnt5a = biological target: T1, FLAG-mClover-mouse Wnt5a (mouse, UniProt P22725 62-380); assay: AUC; AUC-FDS (fluorescence detection) of the culture supernatant of fluorescent Wnt-expressing cells co-cultured with sFRP-expressing or parental HEK293 cells; FluoroBrite DMEM with 8% FBS, no detergent; 20 °C, 42,000 rpm; c(s) model of SEDFIT; details: partners not purified
T1 construct: Wnt5a, mouse; secreted into the culture supernatant; Ends of the tags are read from the order of the printed name; also called mClover-Wnt5a; mClover-tagged Wnt5a; source: HEK293 cells stably expressing it (CMV promoter), secreted into the culture supernatant (not purified); not shown: mClover, N-terminal, kept
T1 sequence (looked up): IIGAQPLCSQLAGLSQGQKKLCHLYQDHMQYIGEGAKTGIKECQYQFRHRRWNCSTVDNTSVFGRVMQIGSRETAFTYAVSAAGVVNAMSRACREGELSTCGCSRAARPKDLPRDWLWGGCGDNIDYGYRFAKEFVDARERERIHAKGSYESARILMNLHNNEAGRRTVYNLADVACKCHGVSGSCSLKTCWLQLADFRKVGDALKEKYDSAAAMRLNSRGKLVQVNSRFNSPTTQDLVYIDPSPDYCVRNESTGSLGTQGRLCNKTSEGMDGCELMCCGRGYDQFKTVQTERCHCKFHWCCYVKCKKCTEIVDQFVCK

[1] = biological target: T2, FLAG-GFP-tagged mouse Wnt3a (mouse, UniProt P27467 19-352); assay: as above; details: partners not purified
T2 construct: Wnt3a, mouse; secreted into the culture supernatant; Ends of the tags are read from the order of the printed name; also called GFP-Wnt3a; FLAG-GFP-Wnt3a; source: L cells stably expressing it, secreted into the culture supernatant (not purified); not shown: GFP, N-terminal, kept
T2 sequence (P27467 19-352): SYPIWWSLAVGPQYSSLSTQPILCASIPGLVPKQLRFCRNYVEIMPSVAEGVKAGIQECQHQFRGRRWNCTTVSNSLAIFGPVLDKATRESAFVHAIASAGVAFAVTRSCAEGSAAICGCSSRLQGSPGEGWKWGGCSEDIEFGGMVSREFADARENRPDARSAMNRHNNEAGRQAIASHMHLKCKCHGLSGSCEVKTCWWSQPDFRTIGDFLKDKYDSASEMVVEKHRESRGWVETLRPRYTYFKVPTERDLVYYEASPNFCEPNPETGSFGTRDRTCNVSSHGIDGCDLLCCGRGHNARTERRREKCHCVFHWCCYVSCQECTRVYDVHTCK

B1: mouse sFRP2-FLAG (natural protein, UniProt P97299 25-295, looked up)
chain: LFLFGQPDFSYKRSNCKPIPANLQLCHGIEYQNMRLPNLLGHETMKEVLEQAGAWIPLVMKQCHPDTKKFLCSLFAPVCLDDLDETIQPCHSLCVQVKDRCAPVMSAFGFPWPDMLECDRFPQDNDLCIPLASSDHLLPATEEAPKVCEACKTKNEDDNDIMETLCKNDFALKIKVKEITYINRDTKIILETKSKTIYKLNGVSERDLKKSVLWLKDSLQCTCEEMNDINAPYLVMGQKQGGELVITSVKRWQKGQREFKRISRSIRKLQC
notes: sFRP2 (secreted Frizzled-related protein 2), mouse; secreted into the culture supernatant; End of the tag is read from the order of the printed name; also called secreted Frizzled-related protein 2; source: HEK293 cells stably expressing it, secreted into the culture supernatant (not purified)
- stoichiometry N (FLAG-mClover-mouse Wnt5a): 1
- stoichiometry N [1]: 1
